One molecule from patent US12187785B2, “Recombinant protein and fragments thereof, method for producing said recombinant protein, synthetic gene and use of sculptin or recombinant protein for preparing a medicament or pharmaceutical composition for the prophylaxis and/or treatment of thromboembolic diseases or as a direct and specific …” (priority 2017, dated 2025) can be followed below.

One data set has as its target T1, trypsin (Bos taurus, UniProt P00760).
T1 construct: gene PRSS1
T1 sequence (P00760 24-246): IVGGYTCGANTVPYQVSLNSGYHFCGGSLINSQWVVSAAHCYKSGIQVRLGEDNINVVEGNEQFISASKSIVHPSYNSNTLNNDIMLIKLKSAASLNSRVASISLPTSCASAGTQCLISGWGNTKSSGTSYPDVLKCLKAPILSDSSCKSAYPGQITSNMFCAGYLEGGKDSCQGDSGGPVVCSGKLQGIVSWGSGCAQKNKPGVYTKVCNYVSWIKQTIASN
In words: Serine protease inhibition test, trypsin (chromogenic substrate). Type of data set: biochemical. The settings on record: recombinant protein 1, 100, 200 nM; protease 100 pM; 6 h at 37° C. As to the method: (A) Inhibition of serine proteases through recombinant protein. Serine protease (100 pM; thrombin, plasmin, trypsin or factor Xa) was incubated with recombinant protein (1, 100 and 200 nM) in phosphate buffer 50 mM containing NaCl 150 mM and 0.1% of PEG 6000, pH 7.4 for 6 h at 37° C. Following addition of chromogenic substrate corresponding to reaction mixture, hydrolysis thereof was monitored at 405 nm. For factor Xa activity, buffer contained phosphatidylserine and phosphatidylcholine 50 μM. […] (B) Typical curves for hydrolysis of chromogenic substrate S-2238 (15 μM) by thrombin 0.1 nM in absence (trace a) or presence of recombinant protein (trace b, 15 pM; trace c, 30 pM; trace d, 60 pM and trace e, 100 pM) in phosphate buffer 50 mM containing NaCl 150 mM and 0.1% of PEG 6000, pH 7.4 at 37° C. (C) Residual activity of thrombin in presence of increasing concentration of recombinant protein. (D) Dose-response curves for thrombin inhibition by recombinant protein. Percentage of thrombin inhibition was plotted versus the concentration record of recombinant protein. Experimental condition of (C) and (D) is the same as in (B).
The first performed experiment was the test of serine proteases inhibition through recombinant protein. […] Hydrolysis of a chromogenic substrate through serine proteases in the presence and absence of recombinant protein was monitored in a spectrophotometer way. […]

For a further data set, the target named is thrombin (Homo sapiens, UniProt P00734). Nature of the data set: Thrombin inhibition, hydrolysis of chromogenic substrate S-2238. Type of data set: biochemical. Details: Brown and cyan colors represent heavy and light chain of thrombin respectively.
[1] abbreviates: from plot of Kobs versus recombinant protein concentration.

B1: GKPQGHPHDALEARSDAVHTAVPKMPKGGHGGFEPIPIDYDERALEARSDAVHTAVPKMPKGGLGGFEPIPIDYDERALEARSDAVHTAVPKMPKGGHGGFEPIPIDYDERALEARSDAVHTAVPKMPKGGHGGFEPIPIDYDERALHALEHHHHHH (protein)
chain: GKPQGHPHDALEARSDAVHTAVPKMPKGGHGGFEPIPIDYDERALEARSDAVHTAVPKMPKGGLGGFEPIPIDYDERALEARSDAVHTAVPKMPKGGHGGFEPIPIDYDERALEARSDAVHTAVPKMPKGGHGGFEPIPIDYDERALHALEHHHHHH
modifications: Sculptin recombinat protein
notes: recombinant His-tagged protein modified from tick sculptin, expressed in E. coli
With B1, in the data set with trypsin, the inhibition of trypsin entry is “did not inhibit”. In addition, in the data set with thrombin (setting [1]), the Koff is 0.65±0.04×10^−3 s^−1 and the Kon is recorded as 4.04±0.03×10^7 M^−1 s^−1. Moreover, the “decrease of residual activity of thrombin” value with thrombin (recombinant protein 1 nM, thrombin 100 pM, 6 h at 37° C., pH 7.4) is given as “about 97%”. The “Inhibition Type” value with thrombin (this study) is given as “Competing”.
